The results in this text go back to paper PMC12957798 (2025).

Experiment [1] concerns the target T1, EGFR (Homo sapiens, UniProt P00533). The experiment can be described thus: BLI.
Experiment [2] deals with T1, EGFR. The experiment in a line: SPR.

SFMPLSIPIMCKMLSKC (biotinylated EGFR) came in with a Kd with EGFR [1] of 229 nM. This counts as sub-micromolar.
The molecule SFMPLSIPIMCKMLSKC showed a Kd with EGFR [2] of 148 nM.
